These results are taken from PMC8717551 (The Journal of Biological Chemistry, 2021).

Data set [1] concerns the target T1, Sa2YefM in heterohexamer;Sa2YoeB in heterohexamer (Staphylococcus aureus …, UniProt Q2FVF7;Q2FVF8 1-85;1-88, |).
T1 sequence 1: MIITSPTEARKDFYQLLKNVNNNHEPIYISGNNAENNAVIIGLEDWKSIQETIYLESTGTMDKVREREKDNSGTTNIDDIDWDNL
T1 sequence 2: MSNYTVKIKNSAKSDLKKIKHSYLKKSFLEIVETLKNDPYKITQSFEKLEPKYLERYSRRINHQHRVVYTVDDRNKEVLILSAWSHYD
The experiment in a line: ITC. In general terms: Isothermal titration calorimetry measures the heat released or taken up as one component is titrated into another.

The data set “crystal structure” concerns the molecule itself. The experiment in a line: crystal structure.

B1: promoter mutant2 (flanking mutated) (dsDNA)
DNA 1: TTGTTGTACAAAAGTTTGTACAATAT
DNA 2: ATATTGTACAAACTTTTGTACAACAA
For the molecule B1, in data set [1], the binding result is reported as “no binding”.

B2: Sa2YefM antitoxin (natural protein)
chain: MIITSPTEARKDFYQLLKNVNNNHEPIYISGNNAENNAVIIGLEDWKSIQETIYLESTGTMDKVREREKDNSGTTNIDDIDWDNL
A word on the stoichiometry N: it is a count of units in the complex or per binding partner. With B2, in the data set “crystal structure”, the “stoichiometry N” value was 2.

B3: promoter mutant1 (core GTAC mutated) (dsDNA)
DNA 1: TTGACTGCATCAAGTGCTGCAGCTAT
DNA 2: ATAGCTGCAGCACTTGATGCAGTCAA
Consider B3, for which the binding result in data set [1] is “no binding”.
